# According to patent US20260374889 (published 2026):
# Substitutions are numbered along the chain they refer to.
# T1: human BCMA on CHO cells (human)
# T1 chain: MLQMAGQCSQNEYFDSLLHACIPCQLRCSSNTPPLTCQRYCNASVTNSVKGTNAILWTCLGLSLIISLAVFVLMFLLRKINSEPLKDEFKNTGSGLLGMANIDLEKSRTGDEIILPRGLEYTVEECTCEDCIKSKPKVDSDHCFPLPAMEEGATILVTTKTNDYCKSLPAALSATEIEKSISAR
# B1: BCMA (PR)-CD28v8 P1AF7062, BCMA arm (antibody, V domains shown)
# VH: EVQLLESGGGLVQPGGSLRLSCAASGFTFSSYAMNWVRQAPGKGLEWVSAITASGGSTYYADSVKGRFTISRDNSKNTLYLQMNSLRAEDTAVYYCARYWPMSLWGQGTLVTVSS
# VL: EIVLTQSPGTLSLSPGERATLSCRASQSVSAYYLAWYQQKPGQAPRLLMYDASIRATGIPDRFSGSGSGTDFTLTISRLEPEDFAVYYCQQYERWPLTFGQGTKVEIKR
# B2: BCMA (PR)-CD28v15 P1AE9053, BCMA arm (antibody, V domains shown)
# VH: B1 VH
# VL: B1 VL
# B3: P1AG7285 BCMA arm (antibody, V domains shown)
# VH: QVQLVQSGAEVKKPGASVKVSCKASGYTFTNYWMHWVRQAPGQGLEWMGIIHPNSGSTNYNEKFQGRVTMTRDTSTSTVYMELSSLRSEDTAVYYCARGIYDYPFAYWGQGTLVTVSS
# VL: DIQMTQSPSSLSASVGDRVTITCRASESVSIHGTHLMHWYQQKPGKAPKLLIYAASSLQSGVPSRFSGSGSETDFTLTISSLQPEDFATYYCQQSIEDPYTFGGGTKVEIK
# B4: P1AG7200 BCMA arm (antibody, V domains shown)
# VH: B3 VH
# VL: B3 VL with S57N, Q59E, E72G
# B5: P1AG7191 BCMA arm (antibody, V domains shown)
# VH: B3 VH
# VL: B3 VL
# B6: P1AG7215 BCMA arm (antibody, V domains shown)
# VH: B3 VH
# VL: B3 VL with S57N, Q59E, E72G
# B7: P1AG7207 BCMA arm (antibody, V domains shown)
# VH: EVQLLESGGGLVQPGGSLRLSCAASGFTFSNAWMDWVRQAPGKGLEWVSQITAKSNNYATYYADSVKGRFTISRDNSKNTLYLQMNSLRAEDTAVYYCTDDGYHWGQGTLVTVSS
# VL: DIQMTQSPSSLSASVGDRVTITCRASEDIRNGLAWYQQKPGKAPKLLIYNANSLHTGVPSRFSGSGSGTDFTLTISSLQPEDFATYYCEDTSKYPYTFGQGTKLEIK
# B8: P1AG7196 BCMA arm (antibody, V domains shown)
# VH: B7 VH
# VL: B7 VL
# Biological target: T1, human BCMA on CHO cells
# Experiment: FACS
row,EC50,Binder
1,5.55 nM,B1
2,7.63 nM,B2
3,25.6 nM,B3
4,13.8 nM,B4
5,19.8 nM,B5
6,16.5 nM,B6
7,16.3 nM,B7
8,18.1 nM,B8
